Experimental data: patent US20220177576A1 (DENALI THERAPEUTICS, published 2022)

Columns and labels:
[1] = target: T1, human TREM2 expressed on HEK293-H6 cells (human, UniProt Q9NZC2 19-230); assay: flow cytometry on human TREM2-expressing HEK cells
T1 construct: Wild type human TREM2 stably co-expressed with DAP12 in HEK 293 cells (clone HEK293-H6); also called Human TREM2 HEK; TREM2 expressed by HEK293-H6 cells
T1 sequence: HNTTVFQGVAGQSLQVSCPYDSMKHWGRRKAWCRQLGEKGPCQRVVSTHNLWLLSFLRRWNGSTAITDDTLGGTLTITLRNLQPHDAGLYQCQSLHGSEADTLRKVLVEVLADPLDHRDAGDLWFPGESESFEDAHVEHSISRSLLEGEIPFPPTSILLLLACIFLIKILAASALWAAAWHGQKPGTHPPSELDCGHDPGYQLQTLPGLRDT
Description: After incubation, the cells were centrifuged and washed in FACS buffer (PBS+0.5% BSA) twice. Mixed cells were resuspended in FACS buffer with human Trustain FcX solution (Biolegend, Catalog No. 422302) at a density of 10⁶/mL per cell line. The mixed cell lines were seeded at 200,000 cells per well in a 96-well round-bottom plate and incubated for 20 minutes at room temperature. After incubation, the cells were centrifuged and incubated with a dose titration of anti-TREM2 antibodies for 45 minutes on ice. After incubation, the cells were centrifuged and washed with FACS buffer three times. The cells were then incubated with secondary antibody (Alexa Fluor 647 AffiniPure F(ab′)2 Fragment Goat Anti-human IgG(H+L), Jackson ImmunoResearch Laboratories, Catalog No. 109-606-088, 1:800 dilution) for 30 minutes on ice. After incubation, the cells were washed with FACS buffer three times, resuspended in 100 μL of FACS buffer, and analyzed by flow cytometry (BD FACSCanto II, San Jose, Calif.), for which 30,000 events were obtained for each sample. Mean fluorescence intensity per cells were calculated by FlowJo software and used for generating dose response binding curve.

[2] = target: T2, recombinant human TREM2 ECD (human, UniProt Q9NZC2 19-172); assay: SPR (Biacore), antibody captured by anti-human Fab, TREM2 ECD as analyte
T2 construct: TREM2' / 'TREM2 ECD'; also called hTREM2; Human TREM2 (Biacore)
T2 sequence: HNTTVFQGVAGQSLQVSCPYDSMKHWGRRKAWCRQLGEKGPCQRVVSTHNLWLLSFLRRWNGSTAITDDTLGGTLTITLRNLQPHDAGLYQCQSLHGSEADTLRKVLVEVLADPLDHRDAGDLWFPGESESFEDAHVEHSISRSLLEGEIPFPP
Description: (§1) Surface plasmon resonance (Biacore™ 8K instrument) was used to measure anti-TREM2 antibody affinities for human and cynomolgus TREM2 ECD. Anti-TREM2 antibodies were captured using Human Fab Capture Kit (GE Healthcare Life Sciences, Catalog No. 28958325) on a Biacore Series S CM5 sensor chip (GE Healthcare Life Sciences, Catalog No. 29149604). Serial 3-fold dilutions of recombinant human or cynomolgus TREM2 were injected at a flow rate of 30 μL/min. Antibody binding was monitored for 300 seconds, followed by monitoring of antibody dissociation for 600+ seconds in HBS-EP+ running buffer (GE Healthcare Life Sciences, Catalog No. BR100669). The binding response was corrected by subtracting the RU value from a blank flow cell. A 1:1 Languir model of simultaneous fitting of kₒₙ and koff was used for kinetics analysis. KD binding values were calculated from kₒₙ and koff.

[3] = target: T3, recombinant cynomolgus TREM2 ECD (cynomolgus, UniProt A0A2K5UY34 49-204); assay: SPR (Biacore), antibody captured by anti-human Fab, cyno TREM2 ECD as analyte
T3 construct: extracellular domain; also called Cyno TREM2
T3 sequence: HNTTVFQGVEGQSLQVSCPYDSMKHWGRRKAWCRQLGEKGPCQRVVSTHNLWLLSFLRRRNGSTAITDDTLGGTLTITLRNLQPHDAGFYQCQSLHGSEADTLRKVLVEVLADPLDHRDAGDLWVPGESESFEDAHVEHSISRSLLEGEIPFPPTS
Description: as §1

[4] = target: T4, human transferrin receptor (human, UniProt P02786 89-760, limits assumed); assay: SPR (Biacore), antibody captured by anti-human Fab on CM5 chip, human TfR as analyte, 1:1 model
T4 construct: also called Human TfR; TfR
Description: Binding of anti-TREM2 protein to human transferrin receptor was determined as follows: anti-human-Fab was immobilized on a CM5 chip, and the anti-TREM2 protein was captured. Full-length human TfR or human TfR apical domain at serial dilution (e.g., concentrations of 1-1,000 nM) was flowed over the chip (180 second association time) and then allowed to dissociate. Fitting was performed using a 1:1 binding model.

T4 sequence (P02786 89-760 limits assumed): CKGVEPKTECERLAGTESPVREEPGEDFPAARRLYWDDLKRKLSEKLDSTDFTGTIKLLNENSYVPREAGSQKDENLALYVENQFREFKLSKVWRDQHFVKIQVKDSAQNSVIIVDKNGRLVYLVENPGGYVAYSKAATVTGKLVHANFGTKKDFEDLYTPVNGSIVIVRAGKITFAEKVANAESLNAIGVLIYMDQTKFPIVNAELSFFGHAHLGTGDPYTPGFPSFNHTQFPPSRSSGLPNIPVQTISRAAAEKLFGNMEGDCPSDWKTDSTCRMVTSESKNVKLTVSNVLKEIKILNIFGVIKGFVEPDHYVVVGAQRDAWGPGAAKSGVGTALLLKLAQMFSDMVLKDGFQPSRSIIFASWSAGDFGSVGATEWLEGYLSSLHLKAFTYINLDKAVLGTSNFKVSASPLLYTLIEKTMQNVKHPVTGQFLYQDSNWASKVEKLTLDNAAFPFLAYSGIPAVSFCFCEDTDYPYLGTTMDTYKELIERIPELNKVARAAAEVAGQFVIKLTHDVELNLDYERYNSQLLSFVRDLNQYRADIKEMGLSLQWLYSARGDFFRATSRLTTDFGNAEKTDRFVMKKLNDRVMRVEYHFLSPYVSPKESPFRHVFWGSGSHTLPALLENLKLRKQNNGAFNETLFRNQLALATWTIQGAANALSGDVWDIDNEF

B1: ATV:TREM2 #5 (antibody, human IgG1, kappa, L234A L235A)
heavy 1: EVQLVESGGGLVQPGGSLRLSCAASGFTFTDFYMSWVRQAPGKGLEWVSVIRNKANAYTAGYNPSVKGRFTISRDNSKNTLYLQMNSLRAEDTAVYYCARLTYGFDYWGQGTLVTVSSASTKGPSVFPLAPSSKSTSGGTAALGCLVKDYFPEPVTVSWNSGALTSGVHTFPAVLQSSGLYSLSSVVTVPSSSLGTQTYICNVNHKPSNTKVDKKVEPKSCDKTHTCPPCPAPEAAGGPSVFLFPPKPKDTLMISRTPEVTCVVVDVSHEDPEVKFNWYVDGVEVHNAKTKPREEQYNSTYRVVSVLTVLHQDWLNGKEYKCKVSNKALPAPIEKTISKAKGQPREPQVYTLPPSRDELTKNQVSLWCLVKGFYPSDIAVEWESYGTEWSNYKTTPPVLDSDGSFFLYSKLTVSKEEWQQGFVFSCSVLHEALHSHYTQKSLSLSPGK
heavy 2: EVQLVESGGGLVQPGGSLRLSCAASGFTFTDFYMSWVRQAPGKGLEWVSVIRNKANAYTAGYNPSVKGRFTISRDNSKNTLYLQMNSLRAEDTAVYYCARLTYGFDYWGQGTLVTVSSASTKGPSVFPLAPSSKSTSGGTAALGCLVKDYFPEPVTVSWNSGALTSGVHTFPAVLQSSGLYSLSSVVTVPSSSLGTQTYICNVNHKPSNTKVDKKVEPKSCDKTHTCPPCPAPEAAGGPSVFLFPPKPKDTLMISRTPEVTCVVVDVSHEDPEVKFNWYVDGVEVHNAKTKPREEQYNSTYRVVSVLTVLHQDWLNGKEYKCKVSNKALPAPIEKTISKAKGQPREPQVYTLPPSRDELTKNQVSLSCAVKGFYPSDIAVEWESNGQPENNYKTTPPVLDSDGSFFLVSKLTVDKSRWQQGNVFSCSVLHEALHSHYTQKSLSLSPGK
light: DIVMTQTPLSLPVTPGEPASISCQSSKSLLHSTGKTYLNWYLQKPGQSPQLLIYWMSTRASGVPDRFSGSGSGTDFTLKISRVEAEDVGVYYCQQFLEYPFTFGQGTKVEIKRTVAAPSVFIFPPSDEQLKSGTASVVCLLNNFYPREAKVQWKVDNALQSGNSQESVTEQDSKDSTYSLSSTLTLSKADYEKHKVYACEVTHQGLSSPVTKSFNRGEC
notes: Knob/hole heterodimeric IgG1; the second carries hole, LALA and LS; also called anti-TREM2/CH35.23.4
An EC50 [1] of 3.6 nM, a Kd [2] of 5.7 nM and a Kd [3] of 2.4 nM were found for B1 in this work. The Kd [4] was 620 nM.

B2: ATV:TREM2 #2 (antibody, human IgG1, kappa, L234A L235A)
heavy 1: EVQLVESGGGLVQPGGSLRLSCAASGFTFTDFYMSWVRQAPGKGLEWVSVIRNKANAYTAGYNPSVKGRFTISRDNSKNTLYLQMNSLRAEDTAVYYCARLTYGFDYWGQGTLVTVSSASTKGPSVFPLAPSSKSTSGGTAALGCLVKDYFPEPVTVSWNSGALTSGVHTFPAVLQSSGLYSLSSVVTVPSSSLGTQTYICNVNHKPSNTKVDKKVEPKSCDKTHTCPPCPAPEAAGGPSVFLFPPKPKDTLMISRTPEVTCVVVDVSHEDPEVKFNWYVDGVEVHNAKTKPREEQYNSTYRVVSVLTVLHQDWLNGKEYKCKVSNKALPAPIEKTISKAKGQPREPQVYTLPPSRDELTKNQVSLWCLVKGFYPSDIAVEWESFGTEWSNYKTTPPVLDSDGSFFLYSKLTVSKEEWQQGFVFSCSVLHEALHSHYTQKSLSLSPGK
heavy 2: EVQLVESGGGLVQPGGSLRLSCAASGFTFTDFYMSWVRQAPGKGLEWVSVIRNKANAYTAGYNPSVKGRFTISRDNSKNTLYLQMNSLRAEDTAVYYCARLTYGFDYWGQGTLVTVSSASTKGPSVFPLAPSSKSTSGGTAALGCLVKDYFPEPVTVSWNSGALTSGVHTFPAVLQSSGLYSLSSVVTVPSSSLGTQTYICNVNHKPSNTKVDKKVEPKSCDKTHTCPPCPAPEAAGGPSVFLFPPKPKDTLMISRTPEVTCVVVDVSHEDPEVKFNWYVDGVEVHNAKTKPREEQYNSTYRVVSVLTVLHQDWLNGKEYKCKVSNKALPAPIEKTISKAKGQPREPQVYTLPPSRDELTKNQVSLSCAVKGFYPSDIAVEWESNGQPENNYKTTPPVLDSDGSFFLVSKLTVDKSRWQQGNVFSCSVLHEALHSHYTQKSLSLSPGK
light: DIVMTQTPLSLPVTPGEPASISCQSSKSLLHSTGKTYLNWYLQKPGQSPQLLIYWMSTRASGVPDRFSGSGSGTDFTLKISRVEAEDVGVYYCQQFLEYPFTFGQGTKVEIKRTVAAPSVFIFPPSDEQLKSGTASVVCLLNNFYPREAKVQWKVDNALQSGNSQESVTEQDSKDSTYSLSSTLTLSKADYEKHKVYACEVTHQGLSSPVTKSFNRGEC
notes: Knob/hole heterodimeric IgG1; the second carries hole, LALA and LS; also called anti-TREM2/CH35.23.1.1
An EC50 [1] of 4.9 nM, a Kd [2] of 5.4 nM and a Kd [3] of 2.4 nM were found for B2 in this work. For the same binder, the Kd [4] was 650 nM.

B3: ATV:TREM2 #3 (antibody, human IgG1, kappa, L234A L235A)
heavy 1: EVQLVESGGGLVQPGGSLRLSCAASGFTFTDFYMSWVRQAPGKGLEWVSVIRNKANAYTAGYNPSVKGRFTISRDNSKNTLYLQMNSLRAEDTAVYYCARLTYGFDYWGQGTLVTVSSASTKGPSVFPLAPSSKSTSGGTAALGCLVKDYFPEPVTVSWNSGALTSGVHTFPAVLQSSGLYSLSSVVTVPSSSLGTQTYICNVNHKPSNTKVDKKVEPKSCDKTHTCPPCPAPEAAGGPSVFLFPPKPKDTLMISRTPEVTCVVVDVSHEDPEVKFNWYVDGVEVHNAKTKPREEQYNSTYRVVSVLTVLHQDWLNGKEYKCKVSNKALPAPIEKTISKAKGQPREPQVYTLPPSRDELTKNQVSLWCLVKGFYPSDIAVEWESYGTEWVNYKTTPPVLDSDGSFFLYSKLTVTKEEWQQGFVFSCSVLHEALHSHYTQKSLSLSPGK
heavy 2: EVQLVESGGGLVQPGGSLRLSCAASGFTFTDFYMSWVRQAPGKGLEWVSVIRNKANAYTAGYNPSVKGRFTISRDNSKNTLYLQMNSLRAEDTAVYYCARLTYGFDYWGQGTLVTVSSASTKGPSVFPLAPSSKSTSGGTAALGCLVKDYFPEPVTVSWNSGALTSGVHTFPAVLQSSGLYSLSSVVTVPSSSLGTQTYICNVNHKPSNTKVDKKVEPKSCDKTHTCPPCPAPEAAGGPSVFLFPPKPKDTLMISRTPEVTCVVVDVSHEDPEVKFNWYVDGVEVHNAKTKPREEQYNSTYRVVSVLTVLHQDWLNGKEYKCKVSNKALPAPIEKTISKAKGQPREPQVYTLPPSRDELTKNQVSLSCAVKGFYPSDIAVEWESNGQPENNYKTTPPVLDSDGSFFLVSKLTVDKSRWQQGNVFSCSVLHEALHSHYTQKSLSLSPGK
light: DIVMTQTPLSLPVTPGEPASISCQSSKSLLHSTGKTYLNWYLQKPGQSPQLLIYWMSTRASGVPDRFSGSGSGTDFTLKISRVEAEDVGVYYCQQFLEYPFTFGQGTKVEIKRTVAAPSVFIFPPSDEQLKSGTASVVCLLNNFYPREAKVQWKVDNALQSGNSQESVTEQDSKDSTYSLSSTLTLSKADYEKHKVYACEVTHQGLSSPVTKSFNRGEC
notes: Knob/hole heterodimeric IgG1; the second carries hole, LALA and LS; also called anti-TREM2/CH35.23.3
An EC50 [1] of 4.6 nM, a Kd [2] of 3 nM and a Kd [3] of 2.2 nM were found for B3 in this work. For the same binder, the Kd [4] was 1400 nM.

B4: ATV:TREM2 #4 (antibody, human IgG1, kappa, L234A L235A)
heavy 1: EVQLVESGGGLVQPGGSLRLSCAASGFTFTDFYMSWVRQAPGKGLEWVSVIRNKANAYTAGYNPSVKGRFTISRDNSKNTLYLQMNSLRAEDTAVYYCARLTYGFDYWGQGTLVTVSSASTKGPSVFPLAPSSKSTSGGTAALGCLVKDYFPEPVTVSWNSGALTSGVHTFPAVLQSSGLYSLSSVVTVPSSSLGTQTYICNVNHKPSNTKVDKKVEPKSCDKTHTCPPCPAPEAAGGPSVFLFPPKPKDTLMISRTPEVTCVVVDVSHEDPEVKFNWYVDGVEVHNAKTKPREEQYNSTYRVVSVLTVLHQDWLNGKEYKCKVSNKALPAPIEKTISKAKGQPREPQVYTLPPSRDELTKNQVSLWCLVKGFYPSDIAVEWESYGTEWVNYKTTPPVLDSDGSFFLYSKLTVTKEEWQQGFVFSCSVLHEALHSHYTQKSLSLSPGK
heavy 2: not shown
light: DIVMTQTPLSLPVTPGEPASISCQSSKSLLHSTGKTYLNWYLQKPGQSPQLLIYWMSTRASGVPDRFSGSGSGTDFTLKISRVEAEDVGVYYCQQFLEYPFTFGQGTKVEIKRTVAAPSVFIFPPSDEQLKSGTASVVCLLNNFYPREAKVQWKVDNALQSGNSQESVTEQDSKDSTYSLSSTLTLSKADYEKHKVYACEVTHQGLSSPVTKSFNRGEC
notes: Knob/hole heterodimeric IgG1; the second carries hole and LS only, without LALA; also called CH3C.35.23.3 cisLALA
A Kd [2] of 2 nM and a Kd [3] of 2.2 nM were found for B4 in this work.
